We go through 1 substance from US20250243262A1.

Assay [1] has as its target rPcrV protein (recombinant Pseudomonas PcrV) (Pseudomonas aeruginosa). Briefly: SPR (Bio-Rad ProteOn XPR36); antibody captured, rPcrV as analyte; table under the sensorgram.
Assay [2] has the same target. Briefly: SPR (Bio-Rad ProteOn XPR36); antibody captured on GLC sensor chip with anti-human IgG, rPcrV injected at multiple concentrations.
Assay [3] shares this target. Briefly: SPR (Bio-Rad ProteOn XPR36); antibody captured by anti-human IgG on GLC chip, rPcrV injected.

The Kd is the free concentration of one partner at which half of the binding sites on the other are occupied at equilibrium, for simple one-to-one binding. The term koff denotes the first-order rate constant of dissociation. As a reminder, the kon is the rate constant with which the complex forms. “V2L2-MD (germlined lead optimized V2L2) (antibody)”: in assay [1], the Kd amounted to 46 pM, the dissociation rate constant (koff) came to 4.03e-05 s⁻¹ and the kon was 884000 M⁻¹ s⁻¹. In assay [2], the Kd was 45.6 pM, the dissociation rate constant (koff) stood at 4.03e-05 s⁻¹ and the on-rate (kon) came out at 884000 M⁻¹ s⁻¹. Besides, the fold increase in Kd over V2L2-GL in assay [3] lay in the range of 2 to 3 fold.
